Molecular target: SHP2-C SH2;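 note: peptide library displayed on the E. coli surface as eCPX fusions, selected cells deep-sequenced, score is each peptide's frequency after selection divided by its frequency in the input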
Test: SH2 binding enrichment of the phosphorylated peptide, bacterial display (enrichment ratio); higher = better substrate or ligand; peptides without Tyr show the background
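Throughout, for phosphorylation enrichment, bacterial display: 11-residue human phosphosite peptides and single-mutation variants displayed on the E. coli surface, counted by deep sequencing, each peptide's frequency after selection divided by its frequency in the unselected input library; frequency after pTyr selection over input frequency; kinase dosed for 20-30% of maximal phosphorylation in three min.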

Sequence | SH2 binding enrichment
ESAAIYNPVIF [RHO_Y301_K296E_YF] | 0.678
IKKFKYGIEEH [GJA1_Y137] | 0.61
VFAADYFKLLG [ROR2_Y645_YF] | 0.638
FLAVGYHKPFI [IDS_Y225_H229Y_YF] | 1.19
EVLKNYNQQKD [GOLGA4_Y1551] | 0.669
IDDNQYAFLKA [HNF4A_Y286_E285Q_YF] | 0.631
TLSGIYQFIIA [FOXL2_Y81_YF] | 1.13
RPSRQYATRDV [SCAMP3_Y35_L38R] | 0.801
TCFDKYTGSTY [FN1_Y101_N104S] | 0.691
ASLEAYCKHKF [RXRA_Y403_YF] | 0.868
TARREYMHSPS [CPOX_Y429_W427R] | 0.647
LGKGSYAKVKS [TSSK2_Y23] | 1.5
FAFQLYDLDPD [CHP2_Y123_R127P_YF] | 0.999
EKEQNYDLTEV [ECD_Y448] | 0.802

Second part, the sequence after the results:

SH2 binding enrichment | Sequence
0.555 | PMQLPHDSTWE [PDGFRB_Y589_Y589H]
1.82 | LRWREYQRQDF [PRKRIP1_Y90_R87W_YF]
0.764 | KVDKEYEVGVR [GHR_Y226_R229G]
1.05 | GIVKAYYVHAR [AIPL1_Y267_R270H]
0.473 | SSYPDYLAAVD [GLB1_Y154_D151Y]
0.646 | EESSHYSTEKE [ADAR_Y587]
0.908 | NGRQCYSCKGN [PLAUR_Y217]
0.837 | TTKGSYSLFVR [HCK_Y180_S183Y_YF]
0.892 | QDDFSYPSRQM [LDLR_Y847_G844D_YF]
0.555 | LSQDVYEEDSY [RET_Y900_R897Q]
0.609 | CTNPRYLAAGS [RABL3_Y185]
0.559 | PEACDYGLGGG [GSTO1_Y239]
0.833 | RFLERYIFNRQ [HLA-DPB1_Y57_E62Q_YF]
0.531 | DDPRTYQKFGF [OAS1_Y362_R361T_YF]
1.09 | LIYTNYEVGKD [GSTP1_Y112_A114V]
0.567 | ANNEFYFRVCA
1.02 | TRDVNYGWTIR [MT-CYB_Y75_I78T]
1.4 | GMTLSYLFREP [NDUFS8_Y74]
0.554 | SAGSSYSISSI [PAX5_Y179_G183S]

Molecular target: FGFR3 (UniProt P22607)
Test: phosphorylation enrichment, bacterial display (enrichment ratio); higher = better substrate or ligand; peptides without Tyr show the background

Chain of FGFR3 (P22607 whole entry, looked up): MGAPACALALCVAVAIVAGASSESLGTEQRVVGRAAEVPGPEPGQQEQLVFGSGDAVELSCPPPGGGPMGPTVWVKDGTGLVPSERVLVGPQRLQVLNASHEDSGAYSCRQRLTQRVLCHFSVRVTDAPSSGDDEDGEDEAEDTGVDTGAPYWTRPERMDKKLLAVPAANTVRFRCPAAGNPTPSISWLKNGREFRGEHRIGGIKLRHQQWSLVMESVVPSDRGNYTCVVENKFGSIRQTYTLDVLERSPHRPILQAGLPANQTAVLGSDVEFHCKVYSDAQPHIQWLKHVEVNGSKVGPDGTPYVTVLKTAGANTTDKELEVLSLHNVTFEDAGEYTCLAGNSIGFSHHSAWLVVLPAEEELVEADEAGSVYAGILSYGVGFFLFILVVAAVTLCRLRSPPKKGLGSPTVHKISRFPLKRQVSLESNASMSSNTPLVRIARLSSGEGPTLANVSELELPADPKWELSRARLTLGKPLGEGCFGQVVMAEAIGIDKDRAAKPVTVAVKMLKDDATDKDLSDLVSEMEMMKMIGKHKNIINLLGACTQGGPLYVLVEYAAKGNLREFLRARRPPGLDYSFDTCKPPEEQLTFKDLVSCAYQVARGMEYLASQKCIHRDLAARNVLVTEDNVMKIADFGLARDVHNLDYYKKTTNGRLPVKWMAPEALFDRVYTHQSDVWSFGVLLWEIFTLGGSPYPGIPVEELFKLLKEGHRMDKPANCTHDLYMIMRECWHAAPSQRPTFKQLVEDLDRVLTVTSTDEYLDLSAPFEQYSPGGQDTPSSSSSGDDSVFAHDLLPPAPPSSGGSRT

Sequence | phosphorylation enrichment
ESAAIYNPVIF [RHO_Y301_K296E_YF] | 0.675
IKKFKYGIEEH [GJA1_Y137] | 0.476
PMQLPHDSTWE [PDGFRB_Y589_Y589H] | 1.23
LRWREYQRQDF [PRKRIP1_Y90_R87W_YF] | 2.67
KVDKEYEVGVR [GHR_Y226_R229G] | 0.493
GIVKAYYVHAR [AIPL1_Y267_R270H] | 0.514
VFAADYFKLLG [ROR2_Y645_YF] | 4.37
SSYPDYLAAVD [GLB1_Y154_D151Y] | 0.746
EESSHYSTEKE [ADAR_Y587] | 0.578
NGRQCYSCKGN [PLAUR_Y217] | 0.341
TTKGSYSLFVR [HCK_Y180_S183Y_YF] | 0.57
FLAVGYHKPFI [IDS_Y225_H229Y_YF] | 0.647
QDDFSYPSRQM [LDLR_Y847_G844D_YF] | 0.704
EVLKNYNQQKD [GOLGA4_Y1551] | 0.702
LSQDVYEEDSY [RET_Y900_R897Q] | 1.04
IDDNQYAFLKA [HNF4A_Y286_E285Q_YF] | 1.61
CTNPRYLAAGS [RABL3_Y185] | 0.646

Sequence | phosphorylation enrichment
TLSGIYQFIIA [FOXL2_Y81_YF] | 7.18
RPSRQYATRDV [SCAMP3_Y35_L38R] | 0.352
TCFDKYTGSTY [FN1_Y101_N104S] | 0.534
ASLEAYCKHKF [RXRA_Y403_YF] | 0.915
TARREYMHSPS [CPOX_Y429_W427R] | 0.355
PEACDYGLGGG [GSTO1_Y239] | 0.816
RFLERYIFNRQ [HLA-DPB1_Y57_E62Q_YF] | 0.642
DDPRTYQKFGF [OAS1_Y362_R361T_YF] | 0.544
LIYTNYEVGKD [GSTP1_Y112_A114V] | 5.54
ANNEFYFRVCA | 0.824
TRDVNYGWTIR [MT-CYB_Y75_I78T] | 0.636
LGKGSYAKVKS [TSSK2_Y23] | 0.844
FAFQLYDLDPD [CHP2_Y123_R127P_YF] | 0.907
EKEQNYDLTEV [ECD_Y448] | 0.73
GMTLSYLFREP [NDUFS8_Y74] | 0.633
SAGSSYSISSI [PAX5_Y179_G183S] | 0.533

Reference: the supplement of paper PMC10065799, “High-throughput profiling of sequence recognition by tyrosine kinases and SH2 domains using bacterial peptide display” (eLife, 2023)
